Test results as given in patent US20260166130A1, “PEPTIDE COMPOSITION HAVING ANGIOGENIC ACTIVITY, AND PHARMACEUTICAL COMPOSITION USING SAME AND COSMETIC COMPOSITION USING SAME” (LABTOMEDI CRO CO.,LTD., priority 2022, published 2026).

Test system: HUVECs
Assay: Blood vessel (tube) formation assay on Matrigel
Type: cell-based, human
Settings: 4 hours, vs. control
Procedure: HUVECs (20,000 cells/well) were seed on a layer of previously polymerized Matrigel and treated with or without the first peptide and the second peptide. The Matrigel culture was incubated at 37° C. After 4 hours, changes in cell morphology were captured using a phase-contrast microscope (×40). Each sample was assayed in duplicate, and independent experiments were repeated three times. *P<0.05, **P,0.01, ***P<0.001 (vs. control).
HUVECs (20,000 cells/well) were seeded on a layer of previously polymerized Matrigel, treated with the visfatin-derived peptides, and then incubated in a 5% CO2 incubator at 37° C. for 4 hours. Then, changes in the cell morphology were observed and photographed using a phase-contrast microscope at 40× magnification. Each sample was assayed in duplicate, and independent experiments were repeated three times. Angiogenesis was analyzed with ImageJ software using an angiogenesis analyzer (Bethesda, MD, USA).

B1: visfatin (protein, UniProt P43490 1-491, looked up)
Nicotinamide …: MNPAAEAEFNILLATDSYKVTHYKQYPPNTSKVYSYFECREKKTENSKLRKVKYEETVFYGLQYILNKYLKGKVVTKEKIQEAKDVYKEHFQDDVFNEKGWNYILEKYDGHLPIEIKAVPEGFVIPRGNVLFTVENTDPECYWLTNWIETILVQSWYPITVATNSREQKKILAKYLLETSGNLDGLEYKLHDFGYRGVSSQETAGIGASAHLVNFKGTDTVAGLALIKKYYGTKDPVPGYSVPAAEHSTITAWGKDHEKDAFEHIVTQFSSVPVSVVSDSYDIYNACEKIWGEDLRHLIVSRSTQAPLIIRPDSGNPLDTVLKVLEILGKKFPVTENSKGYKLLPPYLRVIQGDGVDINTLQEIVEGMKQKMWSIENIAFGSGGGLLQKLTRDLLNCSFKCSYVVTNGLGINVFKDPVADPNKRSKKGRLSLHRTPAGNFVTLEEGKGDLEEYGQDLLHTVFKNGKVTKSYSFDEIRKNAQLNIELEAAHH
notes: 55 kDa cytokine secreted from adipocytes, used as positive control
Question: How did the “number of master junctions (tube formation)” value (second peptide except at the 2.0 μM concentration) turn out when B1 was run?
Answer: The value was “significantly increased”.

Question: What about the “number of meshes (tube formation)” value (positive controls) of the same molecule?
Answer: The value was “not significantly changed”.
